# Reference: patent US5677280A, “Peptides and compounds that bind to the IL-5 receptor” (Glaxo Group Limited, priority 1995, dated 1997)
# T1: human IL-5 receptor (Homo sapiens, UniProt Q01344)
# T1 construct: host or cells: subclone of HL60 induced towards eosinophil differentiation with sodium butyrate (endogenous receptor)
# T1 sequence (Q01344 21-420): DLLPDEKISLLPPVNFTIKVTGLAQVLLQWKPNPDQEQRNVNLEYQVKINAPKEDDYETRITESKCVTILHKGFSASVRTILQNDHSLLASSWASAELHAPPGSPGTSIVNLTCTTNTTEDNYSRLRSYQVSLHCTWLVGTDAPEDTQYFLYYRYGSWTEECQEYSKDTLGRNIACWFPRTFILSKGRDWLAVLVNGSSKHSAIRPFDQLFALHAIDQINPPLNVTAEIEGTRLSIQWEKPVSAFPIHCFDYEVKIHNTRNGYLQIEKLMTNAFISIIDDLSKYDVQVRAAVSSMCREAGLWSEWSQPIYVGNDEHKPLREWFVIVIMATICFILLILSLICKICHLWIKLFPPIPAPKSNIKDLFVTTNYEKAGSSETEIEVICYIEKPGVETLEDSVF
# T1 sequence (P32927 17-897 partner): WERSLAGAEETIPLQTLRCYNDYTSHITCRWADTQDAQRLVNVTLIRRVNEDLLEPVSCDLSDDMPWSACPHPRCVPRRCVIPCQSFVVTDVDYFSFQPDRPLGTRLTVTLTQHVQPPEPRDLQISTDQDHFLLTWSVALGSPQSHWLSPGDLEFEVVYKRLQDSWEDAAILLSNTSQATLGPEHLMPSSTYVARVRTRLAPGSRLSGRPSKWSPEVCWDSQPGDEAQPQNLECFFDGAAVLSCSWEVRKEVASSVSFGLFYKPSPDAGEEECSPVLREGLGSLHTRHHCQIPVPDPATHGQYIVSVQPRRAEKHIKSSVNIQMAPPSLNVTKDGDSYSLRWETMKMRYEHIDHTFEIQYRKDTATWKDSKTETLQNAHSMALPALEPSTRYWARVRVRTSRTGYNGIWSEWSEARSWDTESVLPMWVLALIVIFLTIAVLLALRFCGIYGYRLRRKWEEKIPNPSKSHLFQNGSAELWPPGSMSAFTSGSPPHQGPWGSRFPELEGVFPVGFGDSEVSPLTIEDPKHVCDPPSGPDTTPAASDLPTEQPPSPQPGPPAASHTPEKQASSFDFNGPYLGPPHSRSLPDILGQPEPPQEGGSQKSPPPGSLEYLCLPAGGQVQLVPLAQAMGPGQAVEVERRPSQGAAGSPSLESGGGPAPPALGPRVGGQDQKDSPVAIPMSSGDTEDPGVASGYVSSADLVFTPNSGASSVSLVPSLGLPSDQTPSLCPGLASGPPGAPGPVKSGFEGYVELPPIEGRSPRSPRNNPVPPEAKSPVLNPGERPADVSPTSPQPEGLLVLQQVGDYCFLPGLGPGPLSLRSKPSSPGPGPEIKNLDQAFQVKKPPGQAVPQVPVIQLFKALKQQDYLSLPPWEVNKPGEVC
# Key:
# human IL-5 receptor = biological target: T1, human IL-5 receptor; settings: HL60 subclone, eosinophilic differentiation initiated with sodium butyrate; read-out: Kd of IL-5 binding sites; cited from earlier work
# [1] = biological target: extracellular domain (ECD) of the IL-5 receptor α chain, soluble (human) (UniProt Q01344); assay: competition with [125I] IL-5 on immobilised soluble IL-5Rα; grade ++ = IC50 of 500 nm or less
IC50 [1] [nM],Molecule,Kd (human IL-5 receptor) [nM]
,IL-5: lymphokine secreted by T cells and mast cells having biological activities on B cells and eosinophils,0.03
< 500,DGYVCVEWARCPMCT [peptide … (SEQ ID NO:8)],
< 500,DGYVCVEWARCPTCK [peptide … (SEQ ID NO:7)],
< 500,DGFVCVEWARCPNCR [peptide … (SEQ ID NO:9)],
